B1: Anthrax toxin receptor 1 (Homo sapiens), Q9H6X2-2 (parent)
chain: MATAERRALGIGFQWLSLATLVLICAGQGGRREDGGPACYGGFDLYFILDKSGSVLHHWNEIYYFVEQLAHKFISPQLRMSFIVFSTRGTTLMKLTEDREQIRQGLEELQKVLPGGDTYMHEGFERASEQIYYENRQGYRTASVIIALTDGELHEDLFFYSEREANRSRDLGAIVYCVGVKDFNETQLARIADSKDHVFPVNDGFQALQGIIHSILKKSCIEILAAEPSTICAGESFQVVVRGNGFRHARNVDRVLCSFKINDSVTLNEKPFSVEDTYLLCPAPILKEVGMKAALQVSMNDGLSFISSSVIITTTHCSDGSILAIALLILFLLLALALLWWFWPLCCTVIIKEVPPPPAEESEENKIK

Variants of: B1
Conditions: with pag_bacan pagA

Variant	effect of a mutation on the interaction
D50A	decreasing interaction
T118A	decreasing interaction
